Experimental data reported in patent US8524231.
Positions count from the first letter of the chain named.

B1: antagonistic Fab 1B3 (Fab, part only; not given: lambda light chain, constant domains, V domains shown, not shown: a dimerising Fc or GST)
VH: EVQLVQSGAELRNPGASVKVSCKASGYTFTSYYIDWVRQAPGQGLEWMGRIDPEDGGTKYAQKFQGRVTFTADTSTSTAYVELSSLRSEDTAVYYCARSGRYELDYWGQGTQVTVSS
B2: Fab 1G1 (clone related to 1B3) (Fab, part only; not given: light chain, V domains shown, part only)
VH: B1 VH with I34T, G57D, S84T, A97L, R101A
B3: antagonistic Fab 1C3 (Fab, part only; not given: lambda light chain, constant domains, V domains shown, not shown: a dimerising Fc or GST)
VH: EVQLVESGGGLVQPGGSLRLSCAASGFTFSSYWMYWVRQAPGKGLEWVSAINTGGGRTYYADSVKGRFTISRDNAKNTLYLQMNSLKSEDTAVYYCAKGTSADGSSWYVPADPYDYWGQGTQVTVSS
B4: antagonistic Fab 1A1 (Fab, part only; not given: lambda light chain, constant domains, V domains shown, not shown: a dimerising Fc or GST)
VH: EVQLVESGGGLVQPGGSLRLSCAASGFTFDDYAMSWVRQAPGKGLEWVSTISWNGGATYYAESMKGRFTISRDNAKNTLYLQMNSLKSEDTAVYYCAKPYYSDYVGVEYDYWGQGTQVTVSS

Key:
[1] = target: biotinylated human IL-1Beta (human) (UniProt P01584); assay: competition ELISA: periplasmic Fab extract plus biotinylated IL-1Beta on coated mouse mAb (competitor); reduced signal means competition
Sequence of biotinylated human IL-1Beta (human) (P01584 117-269 limits assumed): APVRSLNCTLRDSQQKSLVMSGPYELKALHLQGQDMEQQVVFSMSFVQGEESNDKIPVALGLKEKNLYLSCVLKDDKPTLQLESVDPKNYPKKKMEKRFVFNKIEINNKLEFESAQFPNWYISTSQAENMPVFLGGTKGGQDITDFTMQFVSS

[2] = target: biotinylated human IL-1Beta (human) (UniProt P01584); assay: cell-based or functional assay
[3] = target: biotinylated human IL-1Beta (human) (UniProt P01584); assay: ELISA based competition assay against the antagonistic reference mouse mAb (competitor)

Binder	signal (OD) in the competition assay [1]	IC50 in the bioassay [2]	concentration at which competition is seen [3]
B1	0.444 OD		
B2	0.498 OD		
B3	0.386 OD	3 µg/mL	> 50 µg/mL
B4	0.205 OD		
